Data: patent publication US20220363770A1 (Amgen, published 2022)
Where a chain is given by its changes, count along the chain named. Each block holds one binder with its values, some of them ahead of it.

How the values were obtained:
human CGRP receptor = human CGRP receptor (human, UniProt Q16602 23-461; O60894 27-148); assay: cell-based or functional assay
human PAC1 receptor = target: T1, human PAC1 receptor (human, UniProt P41586 24-468); assay: cell-based or functional assay
T1 sequence: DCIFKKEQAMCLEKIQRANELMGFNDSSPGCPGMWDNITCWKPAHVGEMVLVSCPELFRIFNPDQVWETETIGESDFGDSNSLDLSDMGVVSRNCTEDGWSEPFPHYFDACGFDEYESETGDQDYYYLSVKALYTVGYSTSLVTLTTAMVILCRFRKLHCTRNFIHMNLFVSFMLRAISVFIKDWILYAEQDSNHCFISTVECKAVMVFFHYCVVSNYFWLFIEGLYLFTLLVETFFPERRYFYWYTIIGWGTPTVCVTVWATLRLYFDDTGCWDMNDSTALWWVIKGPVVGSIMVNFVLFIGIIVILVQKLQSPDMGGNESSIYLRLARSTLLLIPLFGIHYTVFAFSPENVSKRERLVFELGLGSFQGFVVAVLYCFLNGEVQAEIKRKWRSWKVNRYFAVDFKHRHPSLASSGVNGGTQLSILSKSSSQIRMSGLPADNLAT

human CGRP receptor, sequence (Q16602 23-461 limits assumed, chain 1 of 2): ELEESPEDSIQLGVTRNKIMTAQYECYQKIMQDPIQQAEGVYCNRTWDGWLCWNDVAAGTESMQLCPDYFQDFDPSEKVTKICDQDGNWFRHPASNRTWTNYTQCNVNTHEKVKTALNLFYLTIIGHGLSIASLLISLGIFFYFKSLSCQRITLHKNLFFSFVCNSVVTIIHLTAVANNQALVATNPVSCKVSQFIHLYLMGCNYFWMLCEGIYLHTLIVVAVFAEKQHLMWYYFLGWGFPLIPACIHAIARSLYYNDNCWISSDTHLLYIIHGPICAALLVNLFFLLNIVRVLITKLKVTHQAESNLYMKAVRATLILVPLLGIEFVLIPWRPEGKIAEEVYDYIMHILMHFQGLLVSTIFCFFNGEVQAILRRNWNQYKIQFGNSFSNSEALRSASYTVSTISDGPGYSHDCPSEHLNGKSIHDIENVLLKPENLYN
human CGRP receptor, sequence (O60894 27-148 limits assumed, chain 2 of 2): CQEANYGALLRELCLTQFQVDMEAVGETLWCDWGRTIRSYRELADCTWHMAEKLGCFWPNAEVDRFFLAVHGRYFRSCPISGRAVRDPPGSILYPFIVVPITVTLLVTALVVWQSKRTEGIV

B1: iPS:454741 (bispecific antibody, human IgG1, kappa, lambda, N297G)
light 1: QSVLTQPPSVSAAPGQKVTISCSGSYSNIGRYSVSWYQQLPGTAPKLLIYDNNKRPSGIPDRFSGSKSGTSATLGITGLQTGDEADYYCGTWDSRLSAVVFGGGTKLTVLGQPKAAPSVTLFPPSSEELQANKATLVCLISDFYPGAVTVAWKADSSPVKAGVETTTPSKQSNNKYAAKSYLSLTPEQWKSHRSYSCQVTHEGSTVEKTVAPTECS
heavy 1: QVQLVESGGGVVQPGRSLRLSCAASGFTFSSFGMHWVRQAPGKGLEWVAVISFDGSIKYSVDSVKGRFTISRDNSKNTLFLQMNSLRAEDTAVYYCARDRLNYYESSGYYHYKYYGMAVWGQGTTVTVSSASTKGPSVFPLAPSSKSTSGGTAALGCLVKDYFPEPVTVSWNSGALTSGVHTFPAVLQSSGLYSLESVVTVPSSSLGTQTYICNVNHKPSNTKVDKKVEPKSCDKTHTCPPCPAPELLGGPSVFLFPPKPKDTLMISRTPEVTCVVVDVSHEDPEVKFNWYVDGVEVHNAKTKPCEEQYGSTYRCVSVLTVLHQDWLNGKEYKCKVSNKALPAPIEKTISKAKGQPREPQVYTLPPSRKKMTKNQVSLTCLVKGFYPSDIAVEWESNGQPENNYKTTPPVLKSDGSFFLYSKLTVDKSRWQQGNVFSCSVMHEALHNHYTQKSLSLSPGK
light 2: EIVLTQSPATLSLSPGERATLSCRASKSVGQSLHWYQQKPGQAPRLLIKYASQSLSGIPARFSGSGSGTDFTLTISSLEPEDFAVYYCHQSSRLPFTFGPGTKVDIKRTVAAPSVFIFPPSDEQLKSGTASVVCLLNNFYPREAKVQWKVDNALQSGNSQESVTEQDSKDSTYSLESTLTLSKADYEKHKVYACEVTHQGLSSPVTKSFNRGEC
heavy 2: not shown
Fold-improvement over 4E4 Ab (human CGRP receptor): 0.8 fold
IC50 (human CGRP receptor): 0.64 nM
Fold-improvement over 29G4v22 Ab (human PAC1 receptor): 4.2 fold
IC50 (human PAC1 receptor): 1.58 nM

B3: iPS:454745 (bispecific antibody, human IgG1, kappa, lambda, N297G)
light 1: B1 light 1
heavy 1: B1 heavy 1
light 2: B1 light 2 with S28A, Q31F, R93F
heavy 2: not shown
Fold-improvement over 4E4 Ab (human CGRP receptor): 1.3 fold
IC50 (human CGRP receptor): 0.46 nM
Fold-improvement over 29G4v22 Ab (human PAC1 receptor): 5.2 fold
IC50 (human PAC1 receptor): 1.2 nM

B5: iPS:454753 (bispecific antibody, human IgG1, kappa, lambda, N297G)
light 1: B1 light 1
heavy 1: B1 heavy 1
light 2: B1 light 2 with Q31R
heavy 2: not shown
Fold-improvement over 4E4 Ab (human CGRP receptor): 1.3 fold
IC50 (human CGRP receptor): 0.37 nM
Fold-improvement over 29G4v22 Ab (human PAC1 receptor): 10.4 fold
IC50 (human PAC1 receptor): 0.61 nM

B9: iPS:454749 (bispecific antibody, human IgG1, kappa, lambda, N297G)
light 1: B1 light 1
heavy 1: B1 heavy 1
light 2: B1 light 2 with Q31R
heavy 2: not shown
Fold-improvement over 4E4 Ab (human CGRP receptor): 1.4 fold
IC50 (human CGRP receptor): 0.41 nM
Fold-improvement over 29G4v22 Ab (human PAC1 receptor): 7.5 fold
IC50 (human PAC1 receptor): 0.83 nM

B12: iPS:454743 (bispecific antibody, human IgG1, kappa, lambda, N297G)
light 1: B1 light 1
heavy 1: B1 heavy 1
light 2: B1 light 2
heavy 2: not shown
Fold-improvement over 4E4 Ab (human CGRP receptor): 1.1 fold
IC50 (human CGRP receptor): 0.52 nM
Fold-improvement over 29G4v22 Ab (human PAC1 receptor): 3.8 fold
IC50 (human PAC1 receptor): 1.66 nM

B13: iPS:454755 (bispecific antibody, human IgG1, kappa, lambda, N297G)
light 1: B1 light 1
heavy 1: B1 heavy 1
light 2: B1 light 2 with Q31R
heavy 2: not shown
Fold-improvement over 4E4 Ab (human CGRP receptor): 1.8 fold
IC50 (human CGRP receptor): 0.27 nM
Fold-improvement over 29G4v22 Ab (human PAC1 receptor): 9.2 fold
IC50 (human PAC1 receptor): 0.69 nM

B15: iPS:454751 (bispecific antibody, human IgG1, kappa, lambda, N297G)
light 1: B1 light 1
heavy 1: B1 heavy 1
light 2: B1 light 2 with Q31R
heavy 2: not shown
Fold-improvement over 4E4 Ab (human CGRP receptor): 1.2 fold
IC50 (human CGRP receptor): 0.43 nM
Fold-improvement over 29G4v22 Ab (human PAC1 receptor): 12.2 fold
IC50 (human PAC1 receptor): 0.52 nM

B18: iPS:454747 (bispecific antibody, human IgG1, kappa, lambda, N297G)
light 1: B1 light 1
heavy 1: B1 heavy 1
light 2: EIVLTQSPATLSLSPGERATLSCRASRAVSNLHWYQQKPGQAPRLLIKYASQSLSGIPARFSGSGSGTDFTLTISSLEPEDFAVYYCHQSSYLPFTFGPGTKVDIKRTVAAPSVFIFPPSDEQLKSGTASVVCLLNNFYPREAKVQWKVDNALQSGNSQESVTEQDSKDSTYSLESTLTLSKADYEKHKVYACEVTHQGLSSPVTKSFNRGEC
heavy 2: not shown
Fold-improvement over 4E4 Ab (human CGRP receptor): 1.2 fold
IC50 (human CGRP receptor): 0.49 nM
Fold-improvement over 29G4v22 Ab (human PAC1 receptor): 2 fold
IC50 (human PAC1 receptor): 3.09 nM

Continued, values first:

Fold-improvement over 4E4 Ab (human CGRP receptor): 1.1 fold
IC50 (human CGRP receptor): 0.48 nM
Fold-improvement over 29G4v22 Ab (human PAC1 receptor): 9.1 fold
IC50 (human PAC1 receptor): 0.62 nM
B2: iPS:454783 (bispecific antibody, human IgG1, kappa, lambda, N297G)
light 1: B1 light 1
heavy 1: B1 heavy 1
light 2: B1 light 2 with Q31W
heavy 2: not shown

Fold-improvement over 4E4 Ab (human CGRP receptor): 1.4 fold
IC50 (human CGRP receptor): 0.37 nM
Fold-improvement over 29G4v22 Ab (human PAC1 receptor): 7.6 fold
IC50 (human PAC1 receptor): 0.84 nM
B4: iPS:454771 (bispecific antibody, human IgG1, kappa, lambda, N297G)
light 1: B1 light 1
heavy 1: B1 heavy 1
light 2: B1 light 2 with Q31R
heavy 2: not shown

Fold-improvement over 4E4 Ab (human CGRP receptor): 1.5 fold
IC50 (human CGRP receptor): 0.39 nM
Fold-improvement over 29G4v22 Ab (human PAC1 receptor): 8.5 fold
IC50 (human PAC1 receptor): 0.74 nM
B6: iPS:454759 (bispecific antibody, human IgG1, kappa, lambda, N297G)
light 1: B1 light 1
heavy 1: B1 heavy 1
light 2: B1 light 2 with Q31R
heavy 2: not shown

Fold-improvement over 4E4 Ab (human CGRP receptor): 1.4 fold
IC50 (human CGRP receptor): 0.43 nM
Fold-improvement over 29G4v22 Ab (human PAC1 receptor): 9.2 fold
IC50 (human PAC1 receptor): 0.68 nM
B7: iPS:454757 (bispecific antibody, human IgG1, kappa, lambda, N297G)
light 1: B1 light 1
heavy 1: B1 heavy 1
light 2: B1 light 2 with Q31R
heavy 2: not shown

Fold-improvement over 4E4 Ab (human CGRP receptor): 1.4 fold
IC50 (human CGRP receptor): 0.38 nM
Fold-improvement over 29G4v22 Ab (human PAC1 receptor): 6.7 fold
IC50 (human PAC1 receptor): 0.83 nM
B8: iPS:454775 (bispecific antibody, human IgG1, kappa, lambda, N297G)
light 1: B1 light 1
heavy 1: B1 heavy 1
light 2: B1 light 2 with Q31W
heavy 2: not shown

Fold-improvement over 4E4 Ab (human CGRP receptor): 1.2 fold
IC50 (human CGRP receptor): 0.41 nM
Fold-improvement over 29G4v22 Ab (human PAC1 receptor): 9 fold
IC50 (human PAC1 receptor): 0.71 nM
B10: iPS:454767 (bispecific antibody, human IgG1, kappa, lambda, N297G)
light 1: B1 light 1
heavy 1: B1 heavy 1
light 2: B1 light 2 with K27Q, Q31R
heavy 2: not shown

Fold-improvement over 4E4 Ab (human CGRP receptor): 1.5 fold
IC50 (human CGRP receptor): 0.32 nM
Fold-improvement over 29G4v22 Ab (human PAC1 receptor): 8.5 fold
IC50 (human PAC1 receptor): 0.75 nM
B11: iPS:454763 (bispecific antibody, human IgG1, kappa, lambda, N297G)
light 1: B1 light 1
heavy 1: B1 heavy 1
light 2: B1 light 2 with K27Q, Q31R
heavy 2: not shown

Fold-improvement over 4E4 Ab (human CGRP receptor): 1.6 fold
IC50 (human CGRP receptor): 0.34 nM
Fold-improvement over 29G4v22 Ab (human PAC1 receptor): 7.8 fold
IC50 (human PAC1 receptor): 0.71 nM
B14: iPS:454765 (bispecific antibody, human IgG1, kappa, lambda, N297G)
light 1: B1 light 1
heavy 1: B1 heavy 1
light 2: B1 light 2 with K27Q, Q31R
heavy 2: not shown

Fold-improvement over 4E4 Ab (human CGRP receptor): 1.4 fold
IC50 (human CGRP receptor): 0.42 nM
Fold-improvement over 29G4v22 Ab (human PAC1 receptor): 6.4 fold
IC50 (human PAC1 receptor): 0.97 nM
B16: iPS:454761 (bispecific antibody, human IgG1, kappa, lambda, N297G)
light 1: B1 light 1
heavy 1: B1 heavy 1
light 2: B1 light 2 with Q31R
heavy 2: not shown

Fold-improvement over 4E4 Ab (human CGRP receptor): 0.9 fold
IC50 (human CGRP receptor): 0.57 nM
Fold-improvement over 29G4v22 Ab (human PAC1 receptor): 7.7 fold
IC50 (human PAC1 receptor): 0.83 nM
B17: iPS:454773 (bispecific antibody, human IgG1, kappa, lambda, N297G)
light 1: B1 light 1
heavy 1: B1 heavy 1
light 2: B1 light 2 with S28A, Q31W
heavy 2: not shown

Fold-improvement over 4E4 Ab (human CGRP receptor): 1.7 fold
IC50 (human CGRP receptor): 0.32 nM
Fold-improvement over 29G4v22 Ab (human PAC1 receptor): 7.2 fold
IC50 (human PAC1 receptor): 0.78 nM
B19: iPS:454769 (bispecific antibody, human IgG1, kappa, lambda, N297G)
light 1: B1 light 1
heavy 1: B1 heavy 1
light 2: B1 light 2 with Q31R
heavy 2: not shown
